Data: WO2006085967A2 (dated 2006)
One block for each binder: values may come before it.

Assays:
[1] = molecular target: T1, extracellular region of human V158 FcγRIIIa with C-terminal 6x His-tag and GST-tag (human, UniProt P08637 17-208); assay: SPR; receptor immobilized, antibody flowed
T1 construct: extracellular domain; on glutathione acceptor beads (AlphaScreen) or immobilized on the SPR chip; also called Val158 FcγRIIIa; V158 FcγRllla; not shown: 6x His-tag; GST-tag

[2] = molecular target: T1, extracellular region of human V158 …; assay: SPR; fold affinity vs WT
[3] = molecular target: T1, extracellular region of human V158 …; assay: AlphaScreen competition; fold affinity vs WT
[4] = molecular target: T1, extracellular region of human V158 …; assay: only one value in the row
[5] = molecular target: T1, extracellular region of human V158 …; assay: SPR; fold affinity vs WT (read as two values, 1 and 1.86; could be 11.86)
[6] = molecular target: T1, extracellular region of human V158 …; assay: AlphaScreen competition; fold affinity vs WT (read as two values, 1 and 1.86; could be 11.86)

Kd [1]: 68 nM
B1: WT alemtuzumab (antibody)
chain 1: not shown
chain 2: not shown

Fold WT (SPR) [2]: 1.77 fold
Fold WT (AlphaScreen) [3]: 0.64 fold
B2: E258Y alemtuzumab (antibody)
chain 1: not shown
chain 2: not shown

Fold WT (AlphaScreen or SPR) [4]: 12.8 fold
B3: S304T alemtuzumab (antibody)
chain 1: not shown
chain 2: not shown

Fold WT (AlphaScreen or SPR) [4]: 2.31 fold
B4: E283H alemtuzumab (antibody)
chain 1: not shown
chain 2: not shown

Fold WT (SPR) [5]: 1.86 fold
Fold WT (AlphaScreen) [6]: 1 fold
B5: T260H alemtuzumab (antibody)
chain 1: not shown
chain 2: not shown

Fold WT (AlphaScreen or SPR) [4]: 1.51 fold
B6: V284E alemtuzumab (antibody)
chain 1: not shown
chain 2: not shown

Fold WT (AlphaScreen or SPR) [4]: 1.38 fold
B7: E272R alemtuzumab (antibody)
chain 1: not shown
chain 2: not shown
